From patent publication US20110257890A1 (IMMATICS BIOTECHNOLOGIES, published 2011)

B1: MST1R-001 (peptide)
peptide: NYLLYVSNF
B2: ABL1-001 (peptide)
peptide: TYGNLLDYL
B3: NFYB-001 (peptide)
peptide: VYTTSYQQI
B4: MUC6-001 (peptide)
peptide: NYEETFPHI
B5: CDC2-001 (peptide)
peptide: LYQILQGIVF
notes: also called TUMAP encoded by CDK1
B6: PPAP2C-001 (peptide)
peptide: AYLVYTDRL
B7: AVL9-001 (peptide)
peptide: FYISPVNKL
B8: UQCRB-001 (peptide)
peptide: YYNAAGFNKL
B9: SIAH2-001 (peptide)
peptide: VFDTAIAHLF
B10: MET-006 (peptide)
peptide: SYIDVLPEF
B11: NUF2-002 (peptide)
peptide: RFLSGIINF
B12: HSP90B1-001 (peptide)
peptide: KYNDTFWKEF
B13: PLK4-001 (peptide)
peptide: QYASRFVQL
B14: ASPM-001 (peptide)
peptide: RYLWATVTI
B15: KIF2C-001 (peptide)
peptide: IYNGKLFDLL
B16: UCHL5-001 (peptide)
peptide: NYLPFIMEL
B17: ASPM-002 (peptide)
peptide: SYNPLWLRI
B18: MMP3-001 (peptide)
peptide: VFIFKGNQF
B19: IQGAP3-001 (peptide)
peptide: VYKVVGNLL
B20: SMC4-001 (peptide)
peptide: HYKPTPLYF
B21: ERBB3-001 (peptide)
peptide: VYIEKNDKL
B22: ATAD2-001 (peptide)
peptide: AYAIIKEEL
B23: NUF2-001 (peptide)
peptide: VYGIRLEHF

Target: T1, recombinant HLA-A*2402 molecules lacking the transmembrane domain (human, biotinylated at the carboxy terminus of the heavy chain)
T1 construct: Loaded with the peptide in question; used on streptavidin beads (aAPC) and as PE- or APC-coupled multimers
Assay: peptide-loaded recombinant HLA-A*2402 on beads for T-cell priming, read out with A*2402 multimers

Row | Binder | binding result
1 | B1 | binds
2 | B2 | binds
3 | B3 | binds
4 | B4 | binds
5 | B5 | binds
6 | B6 | binds
7 | B7 | binds
8 | B8 | binds
9 | B9 | binds
10 | B10 | binds
11 | B11 | binds
12 | B12 | binds
13 | B13 | binds
14 | B14 | binds
15 | B15 | binds
16 | B16 | binds
17 | B17 | binds
18 | B18 | binds
19 | B19 | binds
20 | B20 | binds
21 | B21 | binds
22 | B22 | binds
23 | B23 | binds
